What all share (assay): cell-based or functional assay
Assay [1] deals with T1, GLP-1 acceptor (UniProt P43220 24-463, limits assumed).
The target in assay [2] is FGFR1/KLB acceptor (UniProt P11362 22-822; Q86Z14 1-1044, limits assumed).
The target in assay [3] is T1, GLP-1 acceptor. This is another data set of the same source.
The target in assay [4] is GCG acceptor (UniProt P47871 26-477, limits assumed).
Assay [5] deals with T2, GIP acceptor (UniProt P48546 22-466, limits assumed).
T2 sequence (looked up): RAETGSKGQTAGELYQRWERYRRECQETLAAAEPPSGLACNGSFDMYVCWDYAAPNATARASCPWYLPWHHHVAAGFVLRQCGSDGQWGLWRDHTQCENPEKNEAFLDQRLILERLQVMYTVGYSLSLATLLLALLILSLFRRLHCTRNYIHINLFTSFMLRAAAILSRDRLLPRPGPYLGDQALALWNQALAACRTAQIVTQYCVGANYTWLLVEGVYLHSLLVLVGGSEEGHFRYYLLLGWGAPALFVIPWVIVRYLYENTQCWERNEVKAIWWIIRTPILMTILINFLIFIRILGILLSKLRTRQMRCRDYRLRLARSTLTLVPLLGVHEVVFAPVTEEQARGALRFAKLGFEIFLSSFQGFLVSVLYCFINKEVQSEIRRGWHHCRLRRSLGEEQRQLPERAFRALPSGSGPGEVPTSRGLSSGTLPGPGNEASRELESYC

Numbering of substitutions follows the chain as printed. Where two headings read alike, the source gives them in different places. Ends that are not written are not given here.

Chain of FGFR1/KLB acceptor (P11362 22-822 limits assumed, chain 1 of 2): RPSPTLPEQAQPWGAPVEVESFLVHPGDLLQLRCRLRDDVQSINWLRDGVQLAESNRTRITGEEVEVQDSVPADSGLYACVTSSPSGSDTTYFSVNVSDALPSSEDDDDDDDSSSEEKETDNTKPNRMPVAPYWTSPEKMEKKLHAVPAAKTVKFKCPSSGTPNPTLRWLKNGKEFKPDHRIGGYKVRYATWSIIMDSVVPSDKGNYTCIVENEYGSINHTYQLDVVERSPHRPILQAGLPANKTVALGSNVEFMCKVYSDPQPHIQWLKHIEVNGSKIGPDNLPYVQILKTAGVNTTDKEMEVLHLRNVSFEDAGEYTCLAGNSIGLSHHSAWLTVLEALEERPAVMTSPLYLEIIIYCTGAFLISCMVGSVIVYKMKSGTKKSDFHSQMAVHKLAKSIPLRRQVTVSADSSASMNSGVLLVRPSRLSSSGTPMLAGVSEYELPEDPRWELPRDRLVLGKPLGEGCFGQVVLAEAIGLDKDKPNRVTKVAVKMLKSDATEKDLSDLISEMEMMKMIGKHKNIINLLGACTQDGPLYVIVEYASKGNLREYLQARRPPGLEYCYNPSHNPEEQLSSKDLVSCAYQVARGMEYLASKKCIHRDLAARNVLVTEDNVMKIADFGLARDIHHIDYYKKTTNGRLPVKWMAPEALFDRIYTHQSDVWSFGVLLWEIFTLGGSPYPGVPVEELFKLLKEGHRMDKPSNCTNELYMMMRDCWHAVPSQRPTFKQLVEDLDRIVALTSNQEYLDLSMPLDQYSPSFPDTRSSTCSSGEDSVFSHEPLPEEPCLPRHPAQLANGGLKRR
Chain of FGFR1/KLB acceptor (Q86Z14 whole entry, chain 2 of 2): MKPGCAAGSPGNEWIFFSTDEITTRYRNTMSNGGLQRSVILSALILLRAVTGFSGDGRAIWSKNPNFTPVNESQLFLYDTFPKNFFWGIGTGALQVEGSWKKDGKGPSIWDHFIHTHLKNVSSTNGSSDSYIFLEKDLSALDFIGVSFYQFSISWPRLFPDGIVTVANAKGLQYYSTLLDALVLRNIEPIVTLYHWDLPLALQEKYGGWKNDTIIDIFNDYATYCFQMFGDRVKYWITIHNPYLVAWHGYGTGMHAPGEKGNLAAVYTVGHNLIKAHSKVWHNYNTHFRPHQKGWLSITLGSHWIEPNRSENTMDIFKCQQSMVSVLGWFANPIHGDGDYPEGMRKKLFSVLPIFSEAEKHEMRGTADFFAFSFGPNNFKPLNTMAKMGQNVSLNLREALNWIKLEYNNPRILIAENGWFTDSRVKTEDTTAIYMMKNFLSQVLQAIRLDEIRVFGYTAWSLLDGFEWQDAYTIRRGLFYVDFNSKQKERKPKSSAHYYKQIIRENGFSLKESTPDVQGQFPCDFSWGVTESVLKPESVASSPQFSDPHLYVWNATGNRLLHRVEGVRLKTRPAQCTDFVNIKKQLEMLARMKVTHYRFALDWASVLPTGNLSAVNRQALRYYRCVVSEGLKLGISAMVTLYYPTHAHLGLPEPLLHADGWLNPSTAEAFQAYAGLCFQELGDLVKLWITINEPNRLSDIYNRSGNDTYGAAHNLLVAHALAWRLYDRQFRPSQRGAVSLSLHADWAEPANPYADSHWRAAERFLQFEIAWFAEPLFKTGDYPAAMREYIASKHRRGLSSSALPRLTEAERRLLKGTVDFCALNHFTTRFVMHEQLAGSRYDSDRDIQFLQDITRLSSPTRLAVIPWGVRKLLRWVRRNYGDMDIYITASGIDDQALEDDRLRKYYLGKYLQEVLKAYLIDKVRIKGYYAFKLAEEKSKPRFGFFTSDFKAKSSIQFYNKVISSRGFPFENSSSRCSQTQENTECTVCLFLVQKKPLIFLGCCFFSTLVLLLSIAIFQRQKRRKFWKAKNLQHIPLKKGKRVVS
Chain of GCG acceptor (P47871 26-477 limits assumed): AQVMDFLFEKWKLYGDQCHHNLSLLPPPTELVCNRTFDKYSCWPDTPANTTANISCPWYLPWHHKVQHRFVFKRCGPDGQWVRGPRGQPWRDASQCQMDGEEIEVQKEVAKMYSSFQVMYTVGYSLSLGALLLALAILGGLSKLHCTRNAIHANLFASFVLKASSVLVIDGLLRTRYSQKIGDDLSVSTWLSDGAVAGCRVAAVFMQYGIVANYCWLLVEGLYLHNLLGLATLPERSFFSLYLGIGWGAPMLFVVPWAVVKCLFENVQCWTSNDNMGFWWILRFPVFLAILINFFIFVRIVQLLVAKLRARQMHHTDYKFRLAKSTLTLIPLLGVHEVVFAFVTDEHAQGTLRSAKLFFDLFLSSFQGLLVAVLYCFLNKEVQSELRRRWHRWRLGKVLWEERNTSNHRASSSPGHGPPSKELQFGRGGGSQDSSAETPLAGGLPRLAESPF

B1: GLP#7 (peptide)
peptide: HGEGTFTSDVSEYLEKQAAKEFIAWLVRGRG
As for B1, in assay [1], the “EC50, cAMP accumulation assay; Transient cell line, n = 1” value (“EC50, cAMP accumulation assay … n = 1” for short) amounted to 0.023 nM.

B2: FGF#5 (ligand)
chain: HPIPDSSPLLQFGGQVRQVYLYTDDAQQTEAHLEIREDGTVGGAADQSPESLLQLKALKPGVIQILGVKTSRFLCQRPDGALYGSLHFDPEACSFREDLKEDGYNVYQSEAHGLPLHLPGNKSPHRDPAPRGPARFLPLPGLPPALPEPPGILAPQPPDVGSSDPLSMVEGSQGRSPSYES
As to B2, in assay [2], the “EC50, FGFR1/KLB functional assay; n = 2” value stood at 22.3 nM.

B3: FGF#9 (ligand)
chain: B2 chain with D98R, K100L
As for B3, in assay [2], the “EC50, FGFR1/KLB functional assay; n = 2” value stood at 19.1 nM.

B4: GLP/GCG#15 (peptide)
peptide: HSQGTFTSDYSKYLDEQAAKEFIAWLMNT
B4: the “EC50, cAMP accumulation assay … n = 1” value in assay [3] was found to be 0.016 nM; in assay [4], 0.424 nM.

B5: GLP#10 (peptide)
peptide: HGEGTFTSDVSEYLEKQAAQEFIAWLVKGR
On to B5, for which, in assay [1], the “EC50, cAMP accumulation assay; Transient cell line, n = 2” value (from here on “EC50 … Transient cell line, n = 2”) worked out at 0.00826 nM.

B6: GLP#5 (peptide)
peptide: HSEGTFTSDVSSYLEEQAAKEFIAWLVKGGG
On to B6, for which, in assay [1], the “EC50, cAMP accumulation assay … n = 1” value was 0.00752 nM.

B7: GLP#9 (peptide)
peptide: B6 peptide with S2G
modifications: ends and bridges not checked
With B7, in assay [1], the “EC50, cAMP accumulation assay; Stable cell line, n = 4” value was found to be 0.00208 nM and the “EC50, cAMP accumulation assay; Transient cell line, n = 3” value (“EC50, cAMP accumulation assay … n = 3” for short) amounted to 0.00071 nM.

B8: GLP#8 (peptide)
peptide: B1 peptide with E12S, K16E
Regarding B8, in assay [1], the “EC50 … Transient cell line, n = 2” value stood at 0.00195 nM.

B9: FGF#7 (ligand)
chain: HPIPDSSPLLQFGGQVRQVYLYTDDAQQTEAHLEIREDGTVGGAADQSPESLLQLKALKPGVIQILGVKTSRFLCQRPDGALYGSLHFDPEACSFREDLKEDGYNVYQSEAHGLPLHLPGNKSPHRDPAPRGPARFLPLPGLPPALPEPPGILAPQPPDVGSSDPLRLVEPSQLRSPSFE
With B9, the “EC50, FGFR1/KLB functional assay; n = 2” value in assay [2] was found to be 17.7 nM.

B10: GLP#1 (peptide)
peptide: HSEGTFTSDVSSYLEGQAAQEFIAWLVNGR
For B10, the “EC50, cAMP accumulation assay … n = 1” value in assay [1] was found to be 0.159 nM.

B11: FGF#1 (ligand)
chain: HPIPDSSPLLQFGGQVRQRYLYTDDAQQTEAHLEIREDGTVGGAADQSPESLLQLKALKPGVIQILGVKTSRFLCQRPDGALYGSLHFDPEACSFREEIRPDGYNVYQSEAHGLPLHLPGNKSPHRDPAPRGPARFLPLPGLPPALPEPPGILAPQPPDVGSSDPLSMVTGLEANRSPSYES
Regarding B11, the “EC50, FGFR1/KLB functional assay; n = 2” value in assay [2] was 21 nM.

B12: GLP#6 (peptide)
peptide: B5 peptide with G2S, Q20K
As to B12, the “EC50 … Transient cell line, n = 2” value in assay [1] was found to be 0.0015 nM.

B13: GLP#3 (peptide)
peptide: B5 peptide with Q20K, K28N
As to B13, the “EC50 … Transient cell line, n = 2” value in assay [1] came to 0.00225 nM.

B14: GIP#1 (peptide)
peptide: YGEGTFISDYSIAMDKIHQQDFVNWLLAQKGKKNDWKHNITQ
B14: the “EC50, cAMP accumulation assay … n = 3” value in assay [5] is 0.0175 nM.

B15: GIP#7 (peptide)
peptide: B14 peptide with H18R
B15: the “EC50, cAMP accumulation assay … n = 1” value in assay [5] is 0.0769 nM.

B16: GIP#2 (peptide)
peptide: B14 peptide with G2S
Regarding B16, in assay [5], the “EC50, cAMP accumulation assay; Stable cell line, n = 2” value worked out at 0.012 nM and the “EC50, cAMP accumulation assay … n = 3” value turned out to be 0.00663 nM.

B17: GIP#5 (peptide)
peptide: B14 peptide with Y1F, G2S
In the case of B17, the “EC50, cAMP accumulation assay … n = 1” value in assay [5] was 0.0819 nM.

B18: GLP/GCG#3 (peptide)
peptide: HGQGTFTSDYSKYLDEQAAKEFIAWLMNT
On to B18, for which the “EC50, cAMP accumulation assay … n = 1” value is 0.013 nM in assay [3] and above 5 nM in assay [4].

These data come from patent publication US20240066137A1 (ONEGENE BIOTECHNOLOGY, published 2024).
